In patent US20180201657A1:

Tests used:
[1] = biological target: CD4-TM:CaMbp(M2):eLOV:TEVcs(high affinity):Gal4 (Avena sativa); assay: cell-based or functional assay
[2] = biological target: CD4-TM:CaMbp(M2):TEVcs:Gal4 (without LOV domain) (UniProt P04386); assay: cell-based or functional assay
[3] = biological target: CD4-TM:CaMbp(M2):LOV:TEVcs(high affinity):Gal4 (original LOV2) (Avena sativa); assay: cell-based or functional assay
[4] = biological target: FLARE transcription factor component as used in cultured neurons (Neurexin-3b-derived TM, soma targe (Avena sativa)); assay: cell-based or functional assay
[5] = biological target: Aga2p-HA-eLOV-TEVcs(ENLYFQY)-FLAG displayed on yeast (UniProt P32781)

CD4-TM:CaMbp(M2):eLOV:TEVcs(high affinity):Gal4 (Avena sativa), sequence (Q2QYY8 other isoform, or with tags, fused parts or gaps): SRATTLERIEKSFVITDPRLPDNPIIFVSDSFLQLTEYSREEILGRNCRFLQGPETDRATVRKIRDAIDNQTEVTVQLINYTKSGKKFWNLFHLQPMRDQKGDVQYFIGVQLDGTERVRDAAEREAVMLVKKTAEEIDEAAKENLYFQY

CaM-TEV(truncated) (from UniProt P04517 2038-2256)
high/low Ca^2+ S/N (reporter expression, HEK cells) [1]: 16
light/dark S/N (reporter expression, HEK cells) [1]: 23
high/low Ca^2+ S/N (reporter expression, HEK cells) [2]: 2
high/low Ca^2+ S/N (reporter expression, HEK cells) [3]: 5
light/dark S/N (reporter expression, HEK cells) [3]: 2

FLARE protease component as used in cultured neurons (CaM-TEV) (from UniProt P04517 2038-2256)
S/N with versus without neuronal activity (mCherry, field stimulation with blue light, 8 minutes) [4]: 11
light/dark S/N (mCherry reporter, cultured neurons, field stimulation, FIG. 10D) [4]: 17
light/dark S/N (mCherry reporter, cultured neurons, media change, FIG. 10C) [4]: 121
mCherry signal with stimulation against light exposed/non-stimulated neurons [4]: > 10 fold

MBP-TEV(S219V) fusion, purified
anti-Flag/anti-HA staining of yeast after TEV protease treatment in the dark (FACS) [5]: Evolved LOV displays superior protection of TEVcs against TEV cleavage in the dark state
